Reference: ChEMBL document CHEMBL2074072, “Transport of glutathione, glucuronate, and sulfate conjugates by the MRP gene-encoded conjugate export pump” (Cancer Res, 1996)

Substrate: N[C@@H](CCC(=O)N[C@H](CSc1ccc([N+](=O)[O-])cc1[N+](=O)[O-])C(=O)NCC(=O)O)C(=O)O
Test: TP_TRANSPORTER: uptake in membrane vesicle from MRP1-expressing HeLa cells
Format: functional, cell membranes

B1: Multidrug resistance-associated protein 1 (Homo sapiens) (protein)
chain: MALRGFCSADGSDPLWDWNVTWNTSNPDFTKCFQNTVLVWVPCFYLWACFPFYFLYLSRHDRGYIQMTPLNKTKTALGFLLWIVCWADLFYSFWERSRGIFLAPVFLVSPTLLGITMLLATFLIQLERRKGVQSSGIMLTFWLVALVCALAILRSKIMTALKEDAQVDLFRDITFYVYFSLLLIQLVLSCFSDRSPLFSETIHDPNPCPESSASFLSRITFWWITGLIVRGYRQPLEGSDLWSLNKEDTSEQVVPVLVKNWKKECAKTRKQPVKVVYSSKDPAQPKESSKVDANEEVEALIVKSPQKEWNPSLFKVLYKTFGPYFLMSFFFKAIHDLMMFSGPQILKLLIKFVNDTKAPDWQGYFYTVLLFVTACLQTLVLHQYFHICFVSGMRIKTAVIGAVYRKALVITNSARKSSTVGEIVNLMSVDAQRFMDLATYINMIWSAPLQVILALYLLWLNLGPSVLAGVAVMVLMVPVNAVMAMKTKTYQVAHMKSKDNRIKLMNEILNGIKVLKLYAWELAFKDKVLAIRQEELKVLKKSAYLSAVGTFTWVCTPFLVALCTFAVYVTIDENNILDAQTAFVSLALFNILRFPLNILPMVISSIVQASVSLKRLRIFLSHEELEPDSIERRPVKDGGGTNSITVRNATFTWARSDPPTLNGITFSIPEGALVAVVGQVGCGKSSLLSALLAEMDKVEGHVAIKGSVAYVPQQAWIQNDSLRENILFGCQLEEPYYRSVIQACALLPDLEILPSGDRTEIGEKGVNLSGGQKQRVSLARAVYSNADIYLFDDPLSAVDAHVGKHIFENVIGPKGMLKNKTRILVTHSMSYLPQVDVIIVMSGGKISEMGSYQELLARDGAFAEFLRTYASTEQEQDAEENGVTGVSGPGKEAKQMENGMLVTDSAGKQLQRQLSSSSSYSGDISRHHNSTAELQKAEAKKEETWKLMEADKAQTGQVKLSVYWDYMKAIGLFISFLSIFLFMCNHVSALASNYWLSLWTDDPIVNGTQEHTKVRLSVYGALGISQGIAVFGYSMAVSIGGILASRCLHVDLLHSILRSPMSFFERTPSGNLVNRFSKELDTVDSMIPEVIKMFMGSLFNVIGACIVILLATPIAAIIIPPLGLIYFFVQRFYVASSRQLKRLESVSRSPVYSHFNETLLGVSVIRAFEEQERFIHQSDLKVDENQKAYYPSIVANRWLAVRLECVGNCIVLFAALFAVISRHSLSAGLVGLSVSYSLQVTTYLNWLVRMSSEMETNIVAVERLKEYSETEKEAPWQIQETAPPSSWPQVGRVEFRNYCLRYREDLDFVLRHINVTINGGEKVGIVGRTGAGKSSLTLGLFRINESAEGEIIIDGINIAKIGLHDLRFKITIIPQDPVLFSGSLRMNLDPFSQYSDEEVWTSLELAHLKDFVSALPDKLDHECAEGGENLSVGQRQLVCLARALLRKTKILVLDEATAAVDLETDDLIQSTIRTQFEDCTVLTIAHRLNTIMDYTRVIVLDKGEIQEYGAPSDLLQQRGLFYSMAKDAGLV
B1 gave a Km of 3.6 µM.
